Experimental data published in the supplement of paper PMC10724198.
± gives the standard deviation of the averaged measurements.

What was measured:
Saccharomyces cerevisiae [1] = assay: protein stability index of tFT-peptide fusion (C-terminal peptide) (PSI (0-1 scale)); higher = more stable (slower turnover)
Protocol: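 MPS profiling in S. cerevisiae of the tFT-X12 degron library: putative degron peptides plus stable controls, 12 aa, fused to the C-terminus of a sfGFP-mCherry timer. Cells are FACS-sorted into 8 mCherry/sfGFP bins and deep-sequenced. PSI runs from 0 (unstable) to 1 (stable). Backgrounds are wild type, das1Δ and doa10Δ at 30 °C, and wild type, das1Δ, cdc34-1 and cdc53-1 at 37 °C; 2-3 technical replicates each.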

Saccharomyces cerevisiae [2] = assay: as above; conditions: genetic background: wild type; temperature: 30 C
[3] = genetic background: cdc34-1, temperature: 37 C
[4] = genetic background: cdc53-1, temperature: 37 C
[5] = genetic background: das1 deletion, temperature: 30 C
[6] = genetic background: das1 deletion, temperature: 37 C
[7] = genetic background: doa10 deletion, temperature: 30 C
[8] = genetic background: wild type, temperature: 30 C
[9] = genetic background: wild type, temperature: 37 C
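Further: PSI is a weighted mean of sequencing reads over stability bins, variants kept only with over 10 reads, mCherry proximal and sfGFP distal, peptide attached via GGGS linker.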

| Sequence | protein stability index (Saccharomyces cerevisiae [1]; [3]) | protein stability index (Saccharomyces cerevisiae [1]; [4]) | protein stability index (Saccharomyces cerevisiae [1]; [5]) | protein stability index (Saccharomyces cerevisiae [1]; [6]) | protein stability index (Saccharomyces cerevisiae [1]; [7]) | protein stability index (Saccharomyces cerevisiae [1]; [8]) | protein stability index (Saccharomyces cerevisiae [1]; [9]) | protein stability index (Saccharomyces cerevisiae [2]) |
| --- | --- | --- | --- | --- | --- | --- | --- | --- |
| KDIFQIYTLYVF | 0.407 ± 0.011 | 0.4611 ± 0.0014 | 0.329 ± 0.035 | 0.502 ± 0.023 | 0.277 ± 0.0099 | 0.3 ± 0.022 | 0.467 ± 0.012 | 0.39 ± 0.034 |
| KFWVVLIEIKYH | 0.0696 ± 0.0057 | 0.132 ± 0.03 | 0.159 ± 0.036 | 0.35 ± 0.092 | 0.0681 ± 0.015 | 0.0691 ± 0.036 | 0.1043 ± 0.00085 | 0.172 ± 0.0091 |
| KGSKGELGVHVG | 0.686 ± 0.03 | 0.712 ± 0.013 | 0.63 ± 0.016 | 0.728 ± 0.0034 | 0.628 ± 0.023 | 0.634 ± 0.021 | 0.6889 ± 0.0015 | 0.671 ± 0.34 |
| KIILMCYTLITL | 0.255 ± 0.033 | 0.347 ± 0.041 | 0.228 ± 0.039 | 0.43 ± 0.018 | 0.2009 ± 0.0016 | 0.225 ± 0.017 | 0.413 ± 0.04 | 0.264 ± 0.015 |
| KIKQIKINNKIN | 0.43 ± 0.0033 | 0.654 ± 0.13 | 0.703 ± 0.026 | 0.758 ± 0.043 | 0.0896 ± 0.034 | 0.092 ± 0.032 | 0.145 ± 0.04 | 0.157 ± 0.0073 |
| KKIKKYTRKLKI | 0.707 ± 0.0088 | 0.765 ± 0.014 | 0.673 ± 0.05 | 0.719 ± 0.053 | 0.323 ± 0.014 | 0.383 ± 0.02 | 0.63 ± 0.0069 | 0.455 ± 0.048 |
| KKKKRVKIQKKN | 0.628 ± 0.059 | 0.707 ± 0.052 | 0.683 ± 0.041 | 0.689 ± 0.041 | 0.259 ± 0.04 | 0.244 ± 0.061 | 0.446 ± 0.009 | 0.404 ± 0.03 |
| KKNLTHSIRVQA | 0.62 ± 0.028 | 0.717 ± 0.0094 | 0.567 ± 0.033 | 0.696 ± 0.011 | 0.352 ± 0.017 | 0.377 ± 0.021 | 0.585 ± 0.015 | 0.505 ± 0.025 |
| KMKGLINKRKES | 0.533 ± 0.05 | 0.657 ± 0.01 | 0.655 ± 0.037 | 0.68 ± 0.015 | 0.146 ± 0.0029 | 0.12 ± 0.05 | 0.233 ± 0.027 | 0.219 ± 0.0027 |
| KNVFLIRGRKNC | 0.627 ± 0.054 | 0.689 ± 0.0093 | 0.638 ± 0.029 | 0.721 ± 0.018 | 0.154 ± 0.021 | 0.193 ± 0.014 | 0.41 ± 0.017 | 0.356 ± 0.098 |
| KSRLFCFVYFLL | 0.333 ± 0.011 | 0.413 ± 0.013 | 0.311 ± 0.032 | 0.501 ± 0.007 | 0.137 ± 0.0024 | 0.141 ± 0.02 | 0.17 ± 0.0063 | 0.167 ± 0.013 |
| KTDVYPVSFFTC | 0.532 ± 0.013 | 0.738 ± 0.0099 | 0.645 ± 0.043 | 0.711 ± 0.055 | 0.0924 ± 0.019 | 0.0951 ± 0.026 | 0.133 ± 0.013 | 0.184 ± 0.028 |
| KVLLYWRHAQRQ | 0.652 ± 0.052 | 0.6916 ± 0.006 | 0.654 ± 0.019 | 0.733 ± 0.01 | 0.387 ± 0.0069 | 0.44 ± 0.0086 | 0.611 ± 0.013 | 0.548 ± 0.11 |
| KYKLYGIMIIEG | 0.39 ± 0.066 | 0.464 ± 0.016 | 0.283 ± 0.039 | 0.472 ± 0.026 | 0.258 ± 0.012 | 0.262 ± 0.013 | 0.462 ± 0.04 | 0.329 ± 0.078 |
| LAGLVRFWGCVG | 0.622 ± 0.022 | 0.7111 ± 0.0023 | 0.656 ± 0.015 | 0.748 ± 0.019 | 0.122 ± 0.019 | 0.141 ± 0.03 | 0.236 ± 0.0026 | 0.341 ± 0.0037 |
| LASSCYRHLLVV | 0.242 ± 0.0047 | 0.323 ± 0.0065 | 0.289 ± 0.029 | 0.4343 ± 0.0036 | 0.0628 ± 0.016 | 0.0775 ± 0.017 | 0.078 ± 0.044 | 0.137 ± 0.002 |
| LCCTLFFCYSYH | 0.569 ± 0.032 | 0.547 ± 0.064 | 0.418 ± 0.017 | 0.554 ± 0.038 | 0.374 ± 0.0053 | 0.388 ± 0.019 | 0.617 ± 0.098 | 0.424 ± 0.013 |
| LCSCMWISAIAI | 0.5594 ± 0.0027 | 0.574 ± 0.006 | 0.435 ± 0.024 | 0.582 ± 0.014 | 0.41 ± 0.036 | 0.435 ± 0.027 | 0.533 ± 0.039 | 0.445 ± 0.0055 |
| LCSLPIVCCFFL | 0.513 ± 0.015 | 0.552 ± 0.016 | 0.434 ± 0.031 | 0.5703 ± 0.0027 | 0.424 ± 0.016 | 0.427 ± 0.022 | 0.534 ± 0.016 | 0.489 ± 0.029 |
| LCVGFISFCFCL | 0.48 ± 0.032 | 0.4954 ± 0.0039 | 0.451 ± 0.0075 | 0.53 ± 0.015 | 0.434 ± 0.01 | 0.435 ± 0.014 | 0.512 ± 0.017 | 0.47934 ± 0.00045 |

| Sequence | protein stability index (Saccharomyces cerevisiae [1]; [3]) | protein stability index (Saccharomyces cerevisiae [1]; [4]) | protein stability index (Saccharomyces cerevisiae [1]; [5]) | protein stability index (Saccharomyces cerevisiae [1]; [6]) | protein stability index (Saccharomyces cerevisiae [1]; [7]) | protein stability index (Saccharomyces cerevisiae [1]; [8]) | protein stability index (Saccharomyces cerevisiae [1]; [9]) | protein stability index (Saccharomyces cerevisiae [2]) |
| --- | --- | --- | --- | --- | --- | --- | --- | --- |
| LCYFFFISLFLG | 0.628 ± 0.032 | 0.572 ± 0.014 | 0.465 ± 0.021 | 0.55 ± 0.0089 | 0.2248 ± 0.0011 | 0.26 ± 0.023 | 0.403 ± 0.0052 | 0.328 ± 0.0056 |
| LFGFILLGVSCC | 0.0506 ± 0.0034 | 0.0719 ± 0.0073 | 0.164 ± 0.029 | 0.22 ± 0.0022 | 0.156 ± 0.0021 | 0.168 ± 0.024 | 0.193 ± 0.015 | 0.211 ± 0.029 |
| LFLIFFSFLFLC | 0.135 ± 0.041 | 0.0847 ± 0.014 | 0.206 ± 0.024 | 0.26132 ± 1.1e-05 | 0.211 ± 0.0073 | 0.114 ± 0.04 | 0.141 ± 0.02 | 0.166 ± 0.028 |
| LFLIYCFAFSIG | 0.258 ± 0.083 | 0.328 ± 0.032 | 0.22 ± 0.034 | 0.4171 ± 0.00091 | 0.194 ± 0.02 | 0.239 ± 0.021 | 0.366 ± 0.014 | 0.367 ± 0.049 |
| LFNRCCTILVVW | 0.189 ± 0.025 | 0.22 ± 0.026 | 0.198 ± 0.02 | 0.343 ± 0.01 | 0.181 ± 0.0051 | 0.2 ± 0.029 | 0.316 ± 0.021 | 0.299 ± 0.016 |
| LFSVFSLVLFIF | 0.338 ± 0.0079 | 0.413 ± 0.011 | 0.34 ± 0.029 | 0.501 ± 0.0086 | 0.316 ± 0.017 | 0.272 ± 0.023 | 0.454 ± 0.0073 | 0.427 ± 0.091 |
| LFVSLSFVVFLP | 0.276 ± 0.0041 | 0.381 ± 0.014 | 0.26 ± 0.037 | 0.421 ± 0.013 | 0.261 ± 0.013 | 0.261 ± 0.025 | 0.391 ± 0.0072 | 0.34 ± 0.077 |
| LFVVFVLLTFFV | 0.231 ± 0.039 | 0.253 ± 0.0056 | 0.243 ± 0.032 | 0.337 ± 0.014 | 0.207 ± 0.02 | 0.217 ± 0.031 | 0.29 ± 0.011 | 0.279 ± 0.089 |
| LGSCSLIYRKFS | 0.597 ± 0.026 | 0.728 ± 0.017 | 0.639 ± 0.02 | 0.703 ± 0.029 | 0.0934 ± 0.0075 | 0.0958 ± 0.017 | 0.172 ± 0.021 | 0.204 ± 0.0059 |
| LHLSSFVILLEL | 0.36297 ± 6.8e-05 | 0.317 ± 0.035 | 0.353 ± 0.024 | 0.458 ± 0.018 | 0.478 ± 0.023 | 0.346 ± 0.014 | 0.437 ± 0.021 | 0.421 ± 0.021 |
| LIEMVTTRYRLC | 0.59 ± 0.02 | 0.7192 ± 0.0016 | 0.622 ± 0.016 | 0.717 ± 0.034 | 0.132 ± 0.0065 | 0.128 ± 0.02 | 0.189 ± 0.018 | 0.242 ± 0.044 |
| LKTKKKKTNTQK | 0.627 ± 0.0068 | 0.633 ± 0.057 | 0.717 ± 0.03 | 0.68 ± 0.038 | 0.67 ± 0.033 | 0.715 ± 0.056 | 0.683 ± 0.0086 | 0.495 ± 0.037 |
| LLCLLLVPQPHR | 0.604 ± 0.015 | 0.66 ± 0.011 | 0.5965 ± 0.0049 | 0.651 ± 0.017 | 0.574 ± 0.027 | 0.584 ± 0.019 | 0.6376 ± 0.003 | 0.0268 ± 0.019 |
| LLFCFSVILFTC | 0.0922 ± 0.0021 | 0.189 ± 0.062 | 0.187 ± 0.033 | 0.291 ± 0.018 | 0.0562 ± 0.022 | 0.0652 ± 0.018 | 0.0808 ± 0.0077 | 0.147 ± 0.018 |
| LLMCCLPFLWVF | 0.409 ± 0.033 | 0.432 ± 0.011 | 0.328 ± 0.039 | 0.4679 ± 0.0022 | 0.2085 ± 0.002 | 0.228 ± 0.022 | 0.316 ± 0.0053 | 0.306 ± 0.021 |
| LLRFFPLLLFSF | 0.135 ± 0.048 | 0.114 ± 0.01 | 0.213 ± 0.03 | 0.278 ± 0.02 | 0.181 ± 0.0067 | 0.116 ± 0.016 | 0.159 ± 0.013 | 0.122 ± 0.083 |
| LLSPFLLMLLFL | 0.4001 ± 0.0019 | 0.395 ± 0.0071 | 0.344 ± 0.007 | 0.432 ± 0.0046 | 0.221 ± 0.01 | 0.2 ± 0.02 | 0.317 ± 0.013 | 0.28 ± 0.004 |
| LLTGRFRILLVV | 0.0537 ± 0.0092 | 0.0715 ± 0.0019 | 0.176 ± 0.019 | 0.276 ± 0.004 | 0.0579 ± 0.017 | 0.0444 ± 0.0073 | 0.0674 ± 0.026 | 0.0704 ± 0.021 |
| LLVRYRRALVLL | 0.338 ± 0.0093 | 0.412 ± 0.018 | 0.425 ± 0.025 | 0.53 ± 0.023 | 0.0924 ± 0.015 | 0.0953 ± 0.036 | 0.131 ± 0.033 | 0.142 ± 0.051 |
